Results on four molecules are retold here after patent publication US20190100588A1 (published 2019).

For orientation: EC50 means the concentration giving half of the maximal effect.

Numbering of substitutions follows the chain as printed.

What all share (assay): ELISA
A general note: In an ELISA, binding on a coated surface is turned into a signal by an enzyme label.

For assay [1], the target named is T1, recombinant CD138 extracellular domain (soluble CD138) (UniProt P18827 23-250).
T1 chain: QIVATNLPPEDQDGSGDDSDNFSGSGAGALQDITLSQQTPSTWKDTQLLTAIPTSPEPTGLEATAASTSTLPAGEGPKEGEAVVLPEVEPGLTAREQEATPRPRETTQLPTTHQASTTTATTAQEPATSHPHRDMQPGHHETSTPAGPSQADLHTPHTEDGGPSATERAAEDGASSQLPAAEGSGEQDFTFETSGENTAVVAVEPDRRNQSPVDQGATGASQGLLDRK

Assay [2] deals with T2, Peptide 2a.
T2 peptide: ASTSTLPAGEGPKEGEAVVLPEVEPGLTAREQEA

Assay [3] addresses T3, Pep6.
T3 peptide: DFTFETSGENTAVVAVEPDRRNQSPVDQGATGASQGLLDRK

B1: antibody 1610 (antibody, V domains shown)
VH: QVQLHQPGTSLVKPGASVKLSCKASGYNFSSYYMHWVKQRPGQGLEWIGTIHPSDSTTNCNQKFKGKATLTVDKSSRTAYMQLNSLTFEDSAVYYCANFVYWGQGTSVTVSS
VL: DIVITQDELSNPVTSGDSVSISCRSSKSLLYKDGKTYLNWFLQRPGQSPQLLIYVVSTRASGVSDRFSGSGSGTDFTLEISRVKAEDVGVYYCQQLVEYPYTFGGGTKLEIK
For B1, the values for the EC50 in assay [1], in assay [2] and in assay [3] were 2.7 ng/mL, 3.9 ng/mL and 12.3 ng/mL, respectively.

B2: antibody 2610 (antibody, V domains shown)
VH: B1 VH with N28S
VL: B1 VL
As to B2, the concentration for a half-maximal effect (EC50) was found to be 7 ng/mL in assay [1], 3.8 ng/mL in assay [2] and 4.9 ng/mL in assay [3].

B3: antibody 2810 (antibody, V domains shown)
VH: B1 VH with N28S, C60Y
VL: B1 VL
Turning to B3, the EC50 turned out to be 5.3 ng/mL in assay [1], 2.8 ng/mL in assay [2] and 3.2 ng/mL in assay [3].

B4: antibody 2510 (antibody, V domains shown)
VH: B1 VH with C60Y
VL: B1 VL
For the molecule B4, the results for the EC50 in assay [1], in assay [2] and in assay [3] were 4.9 ng/mL, 4.6 ng/mL and 8.9 ng/mL, respectively.
